A value given as a limit tells only on which side of the number the result lay.

Results on four molecules are retold here after paper PMC4977500, “Rescuing neuronal cell death by RAIDD- and PIDD- derived peptides and its implications for therapeutic intervention in neurodegenerative diseases” (Scientific Reports, 2016).

B3: RAIDD DD (domain or fragment)
chain: not shown
notes: RAIDD death domain, amino acids 94-199; also called RAIDD death domain; source: E. coli BL21 (DE3) RILP, purified
B4: PIDD DD (domain or fragment, UniProt Q9HB75 777-883, looked up)
chain: LNLGDAETGFLTQSNLLSVAGRLGLDWPAVALHLGVSYREVQRIRHEFRDDLDEQIRHMLFSWAERQAGQPGAVGLLVQALEQSDRQDVAEEVRAVLELGRRKYQDS
notes: PIDD death domain, amino acids 777-883; The His tag is named on the protein for the pull-down; also called his-tagged PIDD DD; PIDD death domain; source: E. coli BL21 (DE3) RILP, purified

Common to all, as to details: both partners purified
Experiment [1] addresses B3. Description: native gel or EMSA; native-PAGE on a PhastSystem, 8-25% acrylamide gradient gels, Coomassie staining; complexes in 20 mM Tris pH 8.0, 50 mM NaCl; pre-incubated with or without peptide for 1 hour at room temperature; complex band without peptide taken as 100%.
Experiment [2] has as its target B4. The experiment is described as above.
Experiment [3] concerns the target T1, full-length RAIDD (UniProt P78560 1-199).
T1 construct: RAIDD, full length, amino acids 1-199; source: E. coli BL21 (DE3), purified (Ni-NTA, S-200 gel filtration)
The description is as above.

Experiment [4] has as its target T2, Full-length RAIDD without any tag (UniProt P78560 1-199).
T2 construct: RAIDD, full length, amino acids 1-199; source: E. coli BL21 (DE3), purified
Description: pull-down; his-tagged PIDD DD on Ni-NTA beads, full-length RAIDD without any tag, with RDH3 or PDH3 (30 μM or 500 μM); wash 20 mM Tris-HCl pH 7.9, 500 mM NaCl, 30 mM imidazole; eluate on SDS-PAGE.

T1 sequence (P78560 whole entry, the tested form may be a part): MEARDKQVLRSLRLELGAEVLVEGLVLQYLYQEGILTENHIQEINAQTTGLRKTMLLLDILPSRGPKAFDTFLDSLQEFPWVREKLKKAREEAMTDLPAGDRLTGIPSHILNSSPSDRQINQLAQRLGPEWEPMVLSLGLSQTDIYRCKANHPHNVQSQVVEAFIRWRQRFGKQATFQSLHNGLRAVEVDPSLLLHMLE
T2 sequence (P78560 whole entry, the tested form may be a part): as above
RAIDD DD, sequence (P78560 94-199): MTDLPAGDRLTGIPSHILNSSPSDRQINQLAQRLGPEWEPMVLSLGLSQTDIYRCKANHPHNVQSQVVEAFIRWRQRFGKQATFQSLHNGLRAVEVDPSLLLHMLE

B1: PDH3 (TAT-fused peptide with wildtype PIDD DD helix 3) (peptide)
peptide: YGRKKRRQRRRGGGGVSYREVQRIRHEFR
notes: PIDD helix 3 (H3 of the death domain), wildtype; FITC-labelled versions were also made, but only for microscopy of cell entry; also called PIDD H3; source: synthetic peptide (Peptron)
On to B1, for which the “fold inhibitory capacity against TAT-Y814A (blocking of RAIDD DD:PIDD DD)” value in experiment [1] was over 5 fold.

B2: RDH3 (TAT-fused peptide with wildtype RAIDD DD helix 3) (peptide)
peptide: YGRKKRRQRRRGGGGLSQTDIYRCKANHPHNV
notes: RAIDD helix 3 (H3 of the death domain), wildtype; FITC-labelled versions were also made, but only for microscopy of cell entry; also called RAIDD DD H3; source: synthetic peptide (Peptron)
As to B2, in experiment [2], the “fold inhibitory capacity against TAT-Y814A (blocking of RAIDD DD:PIDD DD)” value is over 5 fold.

Turning to B3, the binding result in experiment [2] is given as “binds”.

B4: the binding result in experiment [3] and in experiment [4] was “binds” in each case.
